Experimental data published in the nanobody polyreactivity screen of Harvey et al. (2022).

Test: yeast display, Sf9 membrane polyspecificity reagent, FACS + sequencing; frameworks hold sequencing errors
Outline: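 In a synthetic yeast display library (Saccharomyces cerevisiae BJ5465), nanobody expression was induced with galactose for 36–48 hours. FACS gates were set low and high (top ~1%) using anti-HA fluorescence for expression and streptavidin fluorescence for binding of the Sf9 membrane reagent. Each polyreactivity label is drawn from the gate of origin.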

Row | Sequence | polyreactivity (PSR sort gate)
1 | QVQLVESGGGLVQAGGSLRLSCAASGFIYSTYAMGWYRQAPGKERELVAAISWSGGRTNYADSVKGRFTISRDNAKNTVYLQMNSLKPEDTAVYYCAVGGERGARIGSNHRGSRYDYWGQGTQVTVSS | high polyreactivity
2 | QVQLVESGGGLVQAGGSLRLSCAASGFIYSYAMGWYRQAPGKERELVAAISRSGGSTYYADSVKGRFTISRDNAKNTVYLQKNSLKPEDTAVYYCAALRRYPRDNIMYYYPYDYWGQGTQVTVSS | high polyreactivity
3 | QVQLVESGGGLVQAGGSLRLSCAASGFKYAMGWYRQATGKERELVAAISSGGITSYADSVKGRFTISRDNAKNTVYLQMNSLKPEDTAVYYCNARLRHSQYAYYYWGQGTQVTVSS | high polyreactivity
4 | QVQLVESGGGLVQAGGSLRLSCAASGFMFTRYAMGSYRQAPGKERELVAAISWIGTSTYYADSVKGRCTISRDNAKNTVFLQMNSLTPEDTAVYYCNALLYSTGRPGFYLGYDYWGQGTQVTVSS | high polyreactivity
5 | QVQLVESGGGLVQAGGSLRLSCAASGFNFAFYDMGWYRQAPGKERELVAAISWGGSTYYADSVKGRFTISRDNAKNTVYLQMNRLKPEDTAVYYCAARLSRSYRYGYWGQGTQVTVSS | high polyreactivity
6 | QVQLVESGGGLVQAGGSLRLSCAASGFNFGSNAMGWYRQAPGKERELVAAITYSGASTYYADSVKGRFTISRDNAKNTVYLQMNSLKPEDTAVYSCAADLTSYYGGDYWGQGTQVTVSS | low polyreactivity
7 | QVQLVESGGGLVQAGGSLRLSCAASGFNFPYYAMGWYRQAPGKERALVAAIRISGGSTYYADSVKGRFTISRDNAKNTVYLQMNSLKPEDTAVYYCAADYRYRSRFYYWGQGTQVTVSS | low polyreactivity
8 | QVQLVESGGGLVQAGGSLRLSCAASGFNFRGNAMGWYRQAPGKERELVARISGSGDSTYYADSVKGRFTISRDNAKNTVYLQMNSLKPEDTAVYYCNADVFPAVEAYDSSIEYYSWGQGTQVTVSS | low polyreactivity
9 | QVQLVESGGGLVQAGGSLRLSCAASGFNFRRNAMGWYRQAPGKERELVAVITSSARTNYADSVKGRFTISRDNAKNTVYLQMNSLNPEDTAVYSCNAYRYRQSSSDKYGYWGQGTQVTVSS | high polyreactivity
10 | QVQLVESGGGLVQAGGSLRLSCAASGFNFRYYAMGWYRQAPGKERELVAAISASSGRTYYADSVKGRFTISRDNAKNTVYLQMNSLKPEDTAVYYCAAEYIRNGDYGLDYWGQGTQVTVSS | high polyreactivity
11 | QVQLVESGGGLVQAGGSLRLSCAASGFNFRYYAMGWYRQAPGKERELVAAISWSGGTTYYADSVKGRFTISRDNAKNTVYLQMNSLKPEDTAVYYCAARVARFSVPYDYWGQGTQVTVSS | low polyreactivity
12 | QVQLVESGGGLVQAGGSLRLSCAASGFNFSLNAMGWYRQAPGKERELVAAISRSGGRTYYADSVKGRFTISRDNAKNTVYLQMNSLKPEDTAVYYCAAVPITWYAYDYWGQGTQVTVSS | high polyreactivity
13 | QVQLVESGGGLVQAGGSLRLSCAASGFNFSQYAMGWYRQAPGKERELVAAISSGSTYADSVKGRFTISRDNAKNSVYLQMNSLKREDTAVYYCANDPFSRGSRRYDYWGQGTQVTVSS | low polyreactivity
14 | QVQLVESGGGLVQAGGSLRLSCAASGFNFTLNTMGWYRQAPGKERELVAAINSGDSTYADSVKGRFTISRDNAKNTVYLQMNSLKPEDTAVYYCNADPDWWYPFNYWGQGTQVTVSS | low polyreactivity
15 | QVQLVESGGGLVQAGGSLRLSCAASGFNFYDYTMGWYRQAPGKERELVAAISWSGGSTYHADSVKGRFTISRDTAKNTVYLQMNSLKPEDTAVYYCNADYGYYKSGYGFDYWGQGTKVTVSS | low polyreactivity
16 | QVQLVESGGGLVQAGGSLRLSCAASGFNFYGYVMGWYRQAPGKERELVAVISRSGDRTSYADSVKGRFTISRDTAKNTVYLQMNSLKPEDTAVYYCAAESGWGAAGEELDYWGQGTQVTVSS | high polyreactivity
17 | QVQLVESGGGLVQAGGSLRLSCAASGFNFYRNTMGWYSQAPGKEREFVAAIRWRGGSTYYADSVKGRFTISRDNAKNTVYLQMNSLKPEDTAVYYCAADTRPGYSGFEYWGQGTQVTVSS | high polyreactivity
18 | QVQLVESGGGLVQAGGSLRLSCAASGFNFYRYTLGWYRQAPGKERELVASITRRCGSTYYADSVKGRFTISRDNAKHTVYLQMNILKQEDTAEYYCNDATPVWQSGTYDYWGQGTQVTVSS | high polyreactivity
19 | QVQLVESGGGLVQAGGSLRLSCAASGFNFYTNVMGWYRPAPGKERELVAAINSGGSTNYADSVKGRFTISRDNAKNTVYLQMNSLKPEDTAVYYCAARVARISVPYDYWGQGTQVTVSS | low polyreactivity
20 | QVQLVESGGGLVQAGGSLRLSCAASGFNYGIYAMGWYRQAPGKERELVAAISRGGGSTYYADSVKGRFTISRDNAKNTVYLQMNSLKPEDTAVYYCAARYQSPYDYWGQGTQVTVSS | high polyreactivity
21 | QVQLVESGGGLVQAGGSLRLSCAASGFNYYRYVMVWYRQAPGKERELVAAITTSGGSTYYADSVKGRFTISRDNAKNTVYLQMNSLKPEDTAVYYCAAVYIPSRQWYDYWGQGTQVTVSS | high polyreactivity
22 | QVQLVESGGGLVQAGGSLRLSCAASGFSFATYAMGWYRQAPGKERELVAAISSTGGRTYYAVSVKGRFTISRDNAKNNVYLQMNSLKPEDTAVYYCAADWRVTYDYWGQGTQVTVSS | high polyreactivity
23 | QVQLVESGGGLVQAGGSLRLSCAASGFSFGIYAMGWYRQAPGKERELYADSVKGRFTISRDNAKNTVYLQMNSLKPEDTAVYYCAADYWYGAGLPHGTEFDYWGQGTQVTVSS | low polyreactivity
24 | QVQLVESGGGLVQAGGSLRLSCAASGFSFRGYAMGWYRQAPGKERELVAAINYSGGSTYYADSVKGRFTISRDNAKNTVYLQMNSLKPEDTAVYYCAAGKRGDDDYWGQGTQVTVSS | high polyreactivity
25 | QVQLVESGGGLVQAGGSLRLSCAASGFTFAAYAMGWYRPAPGKERELVAAITSRDGTTYYADSVKGRFTISRNNAKNTVYLQMNSLKPEDTAVYYGAKDHFTWGVSEDDYWRQGTQVTVSS | low polyreactivity
26 | QVQLVESGGGLVQAGGSLRLSCAASGFTFAHNAMGWYRQAPGKERELVAAITSRGGSTYYADSVKGRFTISRDNAKNTVYLQMNSLKPEDTAVYYCAARGVNRQVFNYWGQGTQVTVSS | high polyreactivity
27 | QVQLVESGGGLVQAGGSLRLSCAASGFTFAKNAMGWYRQAPGKERELVATISRSGGSTYYADSVKGRFTLSRDNAKNTVYLQMNSLKREVNAVYYCNKKYNYLYDYWGQGTQVTVSS | high polyreactivity
28 | QVQLVESGGGLVQAGGSLRLSCAASGFTFAKYAMGWSRQAPGKERELVAAIRSRGDTTYYADSVKGRFTISRDNAKNTVYFQMNSLKPEDTAVYYCAARSYFLVDCSRYDYWGQGSQVTVSS | high polyreactivity
29 | QVQLVESGGGLVQAGGSLRLSCAASGFTFAKYAMGWYRQAPGKERELVAAISSNGGTTYYADSVKGRFTISRDNAKNTVYLQMNSLKPEDTAVYYCAVRSRVYPSRVKYDYWGQGTQVTVSS | high polyreactivity
30 | QVQLVESGGGLVQAGGSLRLSCAASGFTFAPNAMGWYRQAPGKEREFVAVITYRSTSTFYADSVKGRFTISRDNAKNTVYLQMNSLKPEDTAVYYCNAKYLWYGRYNYWGQGTQVTVSS | high polyreactivity
